Target: T1, endogenous beta-catenin of human HEK293 cells (human, UniProt P35222 2-781)
T1 construct: also called β-catenin
T1 sequence (looked up): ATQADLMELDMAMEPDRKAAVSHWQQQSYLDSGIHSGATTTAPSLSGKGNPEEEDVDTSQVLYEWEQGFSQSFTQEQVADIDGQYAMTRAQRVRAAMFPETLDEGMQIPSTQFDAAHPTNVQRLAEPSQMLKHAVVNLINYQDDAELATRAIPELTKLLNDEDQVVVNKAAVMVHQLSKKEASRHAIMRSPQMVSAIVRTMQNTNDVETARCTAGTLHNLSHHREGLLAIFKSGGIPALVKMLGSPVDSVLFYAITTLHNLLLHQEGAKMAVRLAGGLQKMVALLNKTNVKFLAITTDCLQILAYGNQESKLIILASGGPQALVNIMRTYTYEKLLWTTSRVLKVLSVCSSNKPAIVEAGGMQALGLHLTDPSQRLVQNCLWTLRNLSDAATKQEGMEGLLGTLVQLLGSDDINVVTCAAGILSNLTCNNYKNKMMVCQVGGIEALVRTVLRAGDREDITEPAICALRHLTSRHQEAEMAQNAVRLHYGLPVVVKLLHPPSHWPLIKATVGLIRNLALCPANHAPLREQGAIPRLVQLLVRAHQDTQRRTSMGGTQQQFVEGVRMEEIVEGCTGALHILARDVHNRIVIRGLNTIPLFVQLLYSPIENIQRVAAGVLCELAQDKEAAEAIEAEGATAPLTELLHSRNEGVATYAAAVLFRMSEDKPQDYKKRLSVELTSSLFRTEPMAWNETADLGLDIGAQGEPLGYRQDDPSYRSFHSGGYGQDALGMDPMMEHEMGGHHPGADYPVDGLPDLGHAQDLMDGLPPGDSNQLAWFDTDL
Test: Talon cobalt-affinity isolation of His-tagged hPSF from 1% CHAPSO lysates of stable HEK293 cells, Western blot

B1: human presenilin stabilization factor (PSF) with C-terminal V5 and poly-histidine (6xHis) tags (other, not shown: small tags and cut ends)
chain: MGAAVFFGCTFVAFGPAFALFLITVAGDPLRVIILVAGAFFWLVSLLLASVVWFILVHVTDRSDARLQYGLLIFGAAVSVLLQEVFRFAYYKLLKKADEGLASLSEDGRSPISIRQMAYVSGLSFGIISGVFSVINILADALGPGVVGIHGDSPYYFLTSAFLTAAIILLHTFWGVVFFDACERRRYWALGLVVGSHLLTSGLTFLNPWYEASLLPIYAVTVSMGLWAFITAGGSLRSIQRSSCVRTDYLD
notes: Stably expressed in HEK293 (APP-695) cells (clonal line 2-7), solubilised in 1% CHAPSO and captured on Talon cobalt resin; Both the full-length (~25 kDa) and the processed (~15 kDa) forms were isolated; also called hPSF; PSF-V5
- binding result: no binding
